Consider 5 substances from article PMC4828686.

Values joined by “and” are separate entries in the source; they are usually repeats but may differ in a detail not shown here. Identical values can stand only once.

Test [1] concerns the target Actin mutant that cannot polymerize (G-actin mimetic; Joel et al., 2004). Kind of test: SPR. (SPR reads the build-up and loss of mass on a sensor chip optically.)
Test [2] addresses Actin, purified (rabbit skeletal muscle; Cytoskeleton, Inc.) (rabbit) (UniProt P68135). Put plainly: SPR.
Test [3] addresses GST-fused full-length kindlin-2 LK47/AA mutant (GST-K2LK47/AA) (human) (UniProt Q96AC1). Kind of test: pull-down.
The target of test [4] is Actin, purified (rabbit skeletal muscle; Cytoskeleton, Inc.) (rabbit) (UniProt P68135). Put plainly: co-sedimentation.
Test [5] has the same target. Kind of test: ELISA.

Turning to “GST-fused full-length kindlin-2 (GST-K2) (from UniProt Q96AC1 1-680) (natural protein)”, the Kd (commonly the free concentration of one partner at which half of the binding sites on the other are occupied at equilibrium, for simple one-to-one binding) is 124 nM in test [1]; 136 nM and 190 nM in test [2].
The substance “Actin, purified (rabbit skeletal muscle; Cytoskeleton, Inc.) (from UniProt P68135 1-377) (natural protein)” came in with a mean percent less actin pulled down than by WT K2 in test [3] of 75%.
In turn, α-actinin (natural protein) displayed a percent of the added protein in the actin pellet in test [4] of 52%.
Turning to “Full-length kindlin-2 (K2), GST tag removed by Factor Xa (from UniProt Q96AC1 1-680) (natural protein)”, in test [4], the percent of the added protein in the actin pellet is 36% and 30% to 54% (2×).
As for “GST-fused full-length kindlin-2 LK47/AA mutant (GST-K2LK47/AA) (from UniProt Q96AC1 1-680) (natural protein)”, the fold difference of the relative Kd against WT K2 in test [5] is 3 fold and 5 fold. Further, the Kd in test [2] was 982 nM and 1580 nM.
